Values belong to the binder of their own block, whether it stands above or below them.
How the values were obtained:
[1] = target: T1, recombinant human TfR apical domain (human, UniProt P02786 198-378); assay: SPR (Biacore T200 or 8K); protein captured on anti-human Fab chip, recombinant human TfR apical domain as analyte; 1:1 Langmuir fit
T1 construct: also called transferrin receptor protein 1 apical domain
Method: Affinities of the bispecific proteins were measured by SPR using a Biacore T200 or a Biacore 8K. Biacore™ Series S CM5 sensor chips were immobilized with monoclonal mouse anti-human IgG (Fc) antibody for HER2 affinity measurements or mouse anti-human Fab for TfR affinity measurements (human antibody or Fab capture kit from GE Healthcare). Serial 3-fold dilutions of analyte (recombinant HER2 extracellular domain or recombinant TfR apical domain) were injected at a flow rate of 30 μL/min. Each sample was analyzed using a 3-minute association and a 10-minute dissociation for HER2 extracellular domain binding and a 40-second association and a 3-minute dissociation for human TfR apical domain binding. After each injection, the chip was regenerated using 3 M MgCl₂ or 50 mM glycine at pH 2.0. Binding response was corrected by subtracting the RU from a flow cell capturing an irrelevant IgG at similar density. A 1:1 Languir model of simultaneous fitting of kon and koff was used for kinetics analysis. […] The two constructs are described below.

[2] = target: HER2 on HER2^+ tumor cell lines (BT474, OE19, ZR75) (UniProt P04626 23-1255, limits assumed); assay: cell-based or functional assay

T1 sequence (P02786 198-378 limits assumed): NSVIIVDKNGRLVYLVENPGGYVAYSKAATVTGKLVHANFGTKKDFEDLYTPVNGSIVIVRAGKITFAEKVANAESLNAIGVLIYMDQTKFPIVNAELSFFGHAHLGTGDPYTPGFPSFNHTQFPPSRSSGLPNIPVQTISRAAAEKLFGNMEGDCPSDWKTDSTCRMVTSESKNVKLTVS

Kd [1]: 500 nM
IC50 (nM), BT474 + NRG1 [2]: 3.5 nM
IC50 (nM), BT-474 [2]: 2.3 nM
IC50 (nM), OE19 [2]: 1.1 nM
B1: Bispecific Protein #9 (bispecific antibody, human IgG1, kappa, L234A L235A)
heavy 1: EVQLVESGGGLVQPGGSLRLSCAASGFTFTDYTMDWVRQAPGKGLEWVADVNPNSGGSIYNQRFKGRFTLSVDRSKNTLYLQMNSLRAEDTAVYYCARNLGPSFYFDYWGQGTLVTVSSASTKGPSVFPLAPSSKSTSGGTAALGCLVKDYFPEPVTVSWNSGALTSGVHTFPAVLQSSGLYSLSSVVTVPSSSLGTQTYICNVNHKPSNTKVDKKVEPKSCDKTHTCPPCPAPEAAGGPSVFLFPPKPKDTLMISRTPEVTCVVVDVSHEDPEVKFNWYVDGVEVHNAKTKPREEQYNSTYRVVSVLTVLHQDWLNGKEYKCKVSNKALPAPIEKTISKAKGQPREPQVYTLPPSRDELTKNQVSLWCLVKGFYPSDIAVEWESYGTEWSNYKTTPPVLDSDGSFFLYSKLTVSKEEWQQGFVFSCSVMHEALHNHYTQKSLSLSPGK
heavy 2: not shown
light: not shown
Min Cell viability (%), BT474 + NRG1 [2]: 37%
Min Cell viability (%), BT-474 [2]: 21%
Min Cell viability (%), OE19 [2]: 57%
Min Cell viability (%), ZR75-30 [2]: 87%

Kd [1]: 480 nM
B2: Bispecific Protein #2 (bispecific antibody, human IgG1, kappa, L234A L235A)
heavy: B1 heavy 1
chain: not shown
light: not shown

Reference: US20230192887A1 (published 2023)
